Series [1] addresses TRIM21 coiled-coil (CC235) (human) (UniProt P19474). Put plainly: SEC-MALS.
Series [2] has the same target. The series is described as follows: ITC.
The series “SAXS” deals with the molecule itself. The series is described as follows: SAXS.

Consider “TRIM21 coiled-coil (CC235) (from UniProt P19474 132-235) (domain or fragment)”, for which the stoichiometry N in series [1] was 2. In addition, in series [2], the Kd is 7 µM and the dH (dimer dissociation) turned out to be 65 kcal/mol.

B1: MBP-T21CC (MBPCC235) (domain or fragment, human, UniProt P19474 132-235, looked up)
chain: AQEYQEKLQVALGELRRKQELAEKLEVEIAIKRADWKKTVETQKSRIHAEFVQQKNFLVEEEQRQLQELEKDEREQLRILGEKEAKLAQQSQALQELISELDRR
Regarding B1, the “stoichiometry N” value in the series “SAXS” came out at 2.

The values above are taken from article doi:10.1101/2020.07.28.225359 (bioRxiv, 2020).
